Experimental data published in patent publication US20230312724A1 (KADMON, published 2023).

T1: hB7-H4 (soluble human B7-H4, construct not named) (human, UniProt Q7Z7D3 25-259, limits assumed)
T1 construct: also called soluble hB7-H4
T1 sequence: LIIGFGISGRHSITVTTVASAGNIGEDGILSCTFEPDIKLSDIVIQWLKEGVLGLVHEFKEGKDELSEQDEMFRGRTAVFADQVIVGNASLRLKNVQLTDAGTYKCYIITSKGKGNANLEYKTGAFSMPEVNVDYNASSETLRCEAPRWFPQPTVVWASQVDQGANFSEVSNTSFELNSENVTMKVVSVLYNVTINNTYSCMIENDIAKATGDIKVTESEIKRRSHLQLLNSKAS

T2: mB7-H4 (soluble mouse B7-H4, construct not named) (mouse, UniProt Q7TSP5 25-257, limits assumed)
T2 sequence: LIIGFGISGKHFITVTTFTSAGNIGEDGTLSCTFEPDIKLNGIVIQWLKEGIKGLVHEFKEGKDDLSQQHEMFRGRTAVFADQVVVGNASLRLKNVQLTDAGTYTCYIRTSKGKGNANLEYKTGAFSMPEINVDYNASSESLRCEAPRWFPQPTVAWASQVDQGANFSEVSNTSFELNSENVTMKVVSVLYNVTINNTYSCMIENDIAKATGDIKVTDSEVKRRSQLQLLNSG

T3: human B7-H4 expressed on cells (human, UniProt Q7Z7D3 25-282)
T3 construct: Transfected CHO cells or tumor cell lines that carry hB7-H4; also called cellular hB7-H4
T3 sequence: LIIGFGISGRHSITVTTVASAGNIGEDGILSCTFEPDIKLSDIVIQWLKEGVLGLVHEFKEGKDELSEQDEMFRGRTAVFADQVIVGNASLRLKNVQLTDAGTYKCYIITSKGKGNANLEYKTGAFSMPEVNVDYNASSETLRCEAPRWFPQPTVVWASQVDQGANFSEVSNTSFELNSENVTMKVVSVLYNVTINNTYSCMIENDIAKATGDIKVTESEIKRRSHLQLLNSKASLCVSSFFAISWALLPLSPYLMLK

T4: mouse B7-H4-his (mouse, UniProt Q7TSP5 25-257)
T4 construct: also called mB7-H4-his; mB7-H4-His; not shown: his tag
T4 sequence: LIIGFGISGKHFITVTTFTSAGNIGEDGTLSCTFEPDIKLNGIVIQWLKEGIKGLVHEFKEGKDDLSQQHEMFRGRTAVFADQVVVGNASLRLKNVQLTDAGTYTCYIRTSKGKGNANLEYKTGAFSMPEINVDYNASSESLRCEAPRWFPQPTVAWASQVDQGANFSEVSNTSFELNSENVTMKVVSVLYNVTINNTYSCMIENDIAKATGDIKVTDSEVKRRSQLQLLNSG

T5: human B7-H4-his (human, UniProt Q7Z7D3 25-259)
T5 construct: also called hB7-H4-his; hB7-H4 his; not shown: his tag
T5 sequence: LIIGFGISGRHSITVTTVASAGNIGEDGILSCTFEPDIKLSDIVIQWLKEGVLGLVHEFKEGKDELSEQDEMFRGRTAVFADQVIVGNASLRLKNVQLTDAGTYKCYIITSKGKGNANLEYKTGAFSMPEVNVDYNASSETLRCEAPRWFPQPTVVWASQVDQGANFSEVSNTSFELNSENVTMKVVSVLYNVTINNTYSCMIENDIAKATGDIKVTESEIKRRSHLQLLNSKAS

T6: mouse B7-H4 expressed on cells (mouse, UniProt Q7TSP5 25-257)
T6 construct: also called cellular mB7-H4; mB7-H4/CT26
T6 sequence: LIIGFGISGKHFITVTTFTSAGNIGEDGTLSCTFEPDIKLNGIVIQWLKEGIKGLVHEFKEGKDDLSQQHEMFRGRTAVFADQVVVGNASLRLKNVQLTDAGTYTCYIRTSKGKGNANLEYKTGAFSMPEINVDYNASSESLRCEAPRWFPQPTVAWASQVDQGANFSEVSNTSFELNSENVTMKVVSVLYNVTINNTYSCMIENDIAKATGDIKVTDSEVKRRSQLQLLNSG


Tests used:
[1] = target: T1, hB7-H4 (soluble human B7-H4, construct …); assay: SPR (Biacore)
Procedure: (§1) Surface plasmon resonance experiments were performed using a Biacore T200 instrument equipped with CM5 sensor chips. The system was equilibrated in running buffer HBS-EP pH 7.4. The ligands were immobilized using amine-coupling chemistry. The surfaces of flow cells one through four were activated for 5 min using an amine coupling kit at a flow rate of […]. The ligands (human B7-H4-Fc, human B7-H4-hism and mouse B7-H4-Fc; at a concentration of 5 μg/ml in 10 mM sodium acetate, pH 5.0) were immobilized at a density of 50-100 RU on flow cell 2, 3, 4 respectively. Flow cell 1 was left blank to serve as a reference surface. All flow cell surfaces were blocked with a 5 min injection of 1 M ethanolamine, pH 8.0. To collect kinetic binding data, the respective analyte (diluted in 1×HBS-EP buffer, pH 7.4) was injected over the four flow cells at concentrations of 100 nM to 0.1 nM at a flow rate of […] and at a temperature of 25° C. The protein complex was allowed to associate and dissociate for 180 seconds and 1000 or 1200 seconds, respectively. The surfaces were regenerated with a 30 second injection of 1.5 M NaCl/0.05 M NaOH. The data were fit to a simple 1:1 interaction model using the Langmuir fit option available within the Biaevaluaton software

[2] = target: T2, mB7-H4 (soluble mouse B7-H4, construct …); assay: SPR (Biacore)
Procedure: as §1

[3] = target: T1, hB7-H4 (soluble human B7-H4, construct …); assay: ELISA, hB7-H4
Procedure: (§2) About 1-2 μg/ml of human or mouse B7-H4-Fc (or his-tagged) was immobilized on ELISA plates (Immuno 2HB, Thermo scientific, cat #3455) at 4° C. overnight. After blocking the plates with 3% PBS+milk, serial diluted antibodies were added to the blocked plates and incubated at RT for 1-1.5 h. After washing the plates with PBS-T (0.05%), horse radish peroxidase (HRP)-conjugated antibody targeting the hFab was added to the plate. Signals were developed by adding 3,3′,5,5′-Tetramethylbenzidine (TMB (followed 1N of H₂SO₄ to stop the reaction. The OD at 450 nm was read by ELISA plate reader (Infinite M1000 from TECAN). GraphPad from Prism was used to plot OD450 vs. antibody concentration curve and to calculate the EC50 values.

[4] = target: T3, human B7-H4 expressed on cells; assay: flow cytometry, SK-BR-3 cells
Procedure: (§3) Cells were harvested, washed once, and then re-suspended to the concentration of 1×10⁶ cells/ml in ice cold FACS Buffer. 25 μl of cell suspension was added to each well of a 96-well round-bottom microliter plate. Serially diluted antibodies or fusion proteins were added to each well and incubated for 1 hour at 4° C. Cells were washed three times by centrifugation at 1500 rpm for 5 minutes, and then stained with secondary antibody (1:200 dilution) for 30 min at 4° C. in the dark. Cells were washed once, re-suspended in 100 μl PBS buffer and then analyzed using Guava Flow Cytometry EasyCyte system.

[5] = target: T2, mB7-H4 (soluble mouse B7-H4, construct …); assay: ELISA, mB7-H4
Procedure: as §2

mouse B7-H4-Fc [6] = target: T7, mouse B7-H4-Fc (mouse; human); assay: SPR (Biacore)
T7 construct: also called mB7-H4-Fc; mB7-H4-hFc
T7 sequence (chain, as listed by the source): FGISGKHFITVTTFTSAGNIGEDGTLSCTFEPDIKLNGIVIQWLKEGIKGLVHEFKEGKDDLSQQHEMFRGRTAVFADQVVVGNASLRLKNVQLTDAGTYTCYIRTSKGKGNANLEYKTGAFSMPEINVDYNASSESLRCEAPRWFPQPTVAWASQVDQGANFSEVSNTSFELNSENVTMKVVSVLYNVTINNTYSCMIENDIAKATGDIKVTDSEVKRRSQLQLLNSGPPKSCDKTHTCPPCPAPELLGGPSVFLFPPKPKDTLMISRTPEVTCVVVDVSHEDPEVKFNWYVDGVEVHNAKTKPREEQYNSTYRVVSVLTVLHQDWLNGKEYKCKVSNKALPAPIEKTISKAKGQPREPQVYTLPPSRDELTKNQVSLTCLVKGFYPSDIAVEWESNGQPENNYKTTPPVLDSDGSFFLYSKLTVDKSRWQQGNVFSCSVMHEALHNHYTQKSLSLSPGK

mouse B7-H4-his = target: T4, mouse B7-H4-his; assay: SPR (Biacore)
human B7-H4-his = target: T5, human B7-H4-his; assay: SPR (Biacore)
Procedure: as §1
(§4) The kinetics for binding of the different antibodies to their targets were examined using Biacore analysis.

human B7-H4-Fc [7] = target: T8, human B7-H4-Fc (human); assay: SPR (Biacore)
T8 construct: also called hB7-H4-Fc; hB7-H4 Fc
T8 sequence (chain, as listed by the source): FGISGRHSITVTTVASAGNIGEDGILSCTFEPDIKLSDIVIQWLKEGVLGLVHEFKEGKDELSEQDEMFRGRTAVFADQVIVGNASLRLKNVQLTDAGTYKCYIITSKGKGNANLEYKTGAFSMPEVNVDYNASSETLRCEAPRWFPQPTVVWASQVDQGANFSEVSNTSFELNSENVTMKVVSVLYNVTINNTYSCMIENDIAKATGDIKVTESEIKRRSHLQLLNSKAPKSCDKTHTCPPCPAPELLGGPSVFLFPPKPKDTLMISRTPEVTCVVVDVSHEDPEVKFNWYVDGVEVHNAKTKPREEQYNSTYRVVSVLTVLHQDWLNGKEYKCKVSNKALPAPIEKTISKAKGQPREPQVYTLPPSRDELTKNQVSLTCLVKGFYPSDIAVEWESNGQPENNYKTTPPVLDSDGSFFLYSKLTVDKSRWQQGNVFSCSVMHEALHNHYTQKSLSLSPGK
Procedure: as §1, §4

[8] = target: T6, mouse B7-H4 expressed on cells; assay: flow cytometry, mB7-H4/CT26 cells
Procedure: as §3

mouse B7-H4-Fc [9] = target: T7, mouse B7-H4-Fc; assay: ELISA, coated mB7-H4-Fc
Procedure: as §2

[10] = target: T9, IgV domain of human B7-H4-Fc (human); assay: ELISA, coated hB7-H4 IgV domain
T9 construct: also called hB7-H4 IgV domain
T9 sequence (chain, as listed by the source): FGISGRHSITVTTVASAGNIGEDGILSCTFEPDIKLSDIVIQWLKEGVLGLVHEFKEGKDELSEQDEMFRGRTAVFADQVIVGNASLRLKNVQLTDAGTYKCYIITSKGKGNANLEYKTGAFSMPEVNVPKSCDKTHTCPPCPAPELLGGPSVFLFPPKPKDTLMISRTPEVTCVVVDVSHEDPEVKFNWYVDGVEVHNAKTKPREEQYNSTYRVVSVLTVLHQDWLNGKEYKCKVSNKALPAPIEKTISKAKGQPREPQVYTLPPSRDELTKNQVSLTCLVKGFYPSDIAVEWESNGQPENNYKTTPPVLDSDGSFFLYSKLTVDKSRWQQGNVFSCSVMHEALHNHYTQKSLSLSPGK
Procedure: as §2

[11] = target: T10, IgV domain of mouse B7-H4-Fc (mouse; human); assay: ELISA, coated mB7-H4 IgV domain
T10 construct: also called mB7-H4 IgV domain
T10 sequence (chain, as listed by the source): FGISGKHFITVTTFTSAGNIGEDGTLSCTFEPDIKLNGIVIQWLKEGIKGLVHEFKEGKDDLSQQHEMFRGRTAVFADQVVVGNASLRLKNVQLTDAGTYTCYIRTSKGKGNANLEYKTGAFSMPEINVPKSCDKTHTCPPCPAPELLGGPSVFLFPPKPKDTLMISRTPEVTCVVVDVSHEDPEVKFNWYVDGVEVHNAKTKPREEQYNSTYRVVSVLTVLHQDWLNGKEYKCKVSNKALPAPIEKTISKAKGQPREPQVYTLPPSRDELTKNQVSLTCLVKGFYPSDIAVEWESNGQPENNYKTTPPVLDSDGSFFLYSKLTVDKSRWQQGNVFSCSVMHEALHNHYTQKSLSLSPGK
Procedure: as §2

human B7-H4-Fc [12] = target: T8, human B7-H4-Fc; assay: ELISA, coated hB7-H4-Fc
Procedure: as §2

Kd [1]	Kd [2]	EC50 [3]	EC50 [4]	EC50 [5]	Kd (mouse B7-H4-Fc [6])	Kd (mouse B7-H4-his)	Kd (human B7-H4-his)	Kd (human B7-H4-Fc [7])	EC50 [8]	binding result (mouse B7-H4-Fc [9])	binding result [10]	binding result [11]	EC50 (read off the curve) (human B7-H4-Fc [12])	EC50 (read off the curve) (mouse B7-H4-Fc [9])	Binder
5.97 nM	4.78 nM	0.18 nM	126 nM	0.104 nM	0.642 nM	1.52 nM	0.85 nM	1.8 nM	122 nM						9D11/9D11 (antibody, human IgG1, V domains shown) VH: QVQLVQSGAEVKKPGASVKVSCKASGYTFTSYGISWVRQAPGQGLEWVGVINPNGGTTTYAQTFQGRVTMTRDTSTSTVYMELSSLRSEDTAVYYCARTGYSSGWAFDYWGRGTLVTVSS VL: not shown
7.09 nM	6.08 nM	0.1 nM	24 nM	0.105 nM					54.3 nM						9D11/67H9 (antibody, human IgG1, V domains shown, 9D11 VH with 67H9 VL) VH: QVQLVQSGAEVKKPGASVKVSCKASGYTFTSYGISWVRQAPGQGLEWVGVINPNGGTTTYAQTFQGRVTMTRDTSTSTVYMELSSLRSEDTAVYYCARTGYSSGWAFDYWGRGTLVTVSS VL: not shown
10.6 nM	8.46 nM	0.261 nM	22.5 nM	0.162 nM					45.3 nM	binds					9D11/67G3 (antibody, human IgG1, V domains shown, 9D11 VH with 67G3 VL) VH: QVQLVQSGAEVKKPGASVKVSCKASGYTFTSYGISWVRQAPGQGLEWVGVINPNGGTTTYAQTFQGRVTMTRDTSTSTVYMELSSLRSEDTAVYYCARTGYSSGWAFDYWGRGTLVTVSS VL: not shown
15 nM	2.8 nM	0.115 nM	9.2 nM	0.082 nM					45.7 nM	binds					9D11/67C6 (antibody, human IgG1, V domains shown, 9D11 VH with 67C6 VL) VH: QVQLVQSGAEVKKPGASVKVSCKASGYTFTSYGISWVRQAPGQGLEWVGVINPNGGTTTYAQTFQGRVTMTRDTSTSTVYMELSSLRSEDTAVYYCARTGYSSGWAFDYWGRGTLVTVSS VL: not shown
						3.4 nM	5.3 nM			binds					24B6/24B6 (antibody, human IgG1, V domains shown) VH: QVQLVQSGAEVKKPGASVKVSCKASGYTFTGYYMHWVRQAPGQGLEWIGWMNPNSGDTGYAQKFQGRVTMTRDTSTSTVYMELSSLRSEDTAVYYCAKVGAYGGMDVWGQGTTVTVSS VL: not shown
						6.38 nM	6.05 nM			binds					30G4/30G4 (antibody, human IgG1, V domains shown) VH: QVQLVQSGAEVKKPGASVKVSCKASGYTFSSYYMHWVRQAPGQGLEWMGWMNPNSGDTGYAQKFQGRVTMTRDTSTSTVYMELSSLRSEDTAVYYCARVPETGGMDVWGQGTTVTVSS VL: DIVMTQSPLSLPVTPGEPASISCRSSQSLLHSNGYNYLDWYLQKPGQSPQLLIYGASSLHSGVPDRFSGSGSGTDFTLKISRVEAEDVGVYYCMQGTHWPPTFGQGTKVEIK
					13.1 nM	7.83 nM	5.19 nM	12.1 nM			no binding (tested: 20 nM)	no binding (tested: 20 nM)			5G6/5G6 (antibody, human IgG1, V domains shown) VH: QVQLVQSGAEVKKPGASVKVSCKASGYTFTSYYMHWVRQAPGQGLEWLGWVNPNTGTTRFAQKFQGRVTMTRDTSTSTVYMELSSLRSEDTAVYYCARDANYYYGMDVWGQGTMVTVSS VL: DIVMTQSPDSLAVSLGERATINCKSSQSVLYSSNNKNYLAWYQQKPGQPPKLLIYWASTRESGVPDRFSGSGSGTDFTLTISSLQAEDVATYYCQKYNSALPITFGQGTRLEIK
						29.2 nM	194 nM			binds					24F4/24F4 (antibody, human IgG1, V domains shown) VH: QVQLVQSGAEVKKPGSSVKVSCKASGYRFTGDYIHWVRQAPGQGLEWMGWMNPNSGNTGLAQKFQGRVTITADESTSTAYMELSSLRSEDTAVYYCARVLGFSGGMDVWGQGTTVTVSS VL: DIVMTQSPLSLPVTPGEPASISCRSSQSLLHSNGYNYLDWYLQKPGQSPQLLIYAASSLRSGVPDRFSGSGSGTDFTLKISRVEAEDVGVYYCMQGTHWPPTFGQGTKLEIK
					11.9 nM	15 nM	16.6 nM	15 nM			no binding (tested: 20 nM)	no binding (tested: 20 nM)	~0.1 nM	~0.1 nM	5F4/5F4 (antibody, human IgG1, V domains shown) VH: EVQLLESGGGLVKPGGSLRLSCAASGFTFSSYAMHWVRQAPGKGLEWVSAIGGSGRTTYYADSVKGRFTISRDDSKNTLYLQMNSLKTEDTAVYYCARERGYSYGQIDYWGQGTLVTVSS VL: DIVMTQSPLSLPVTPGEPASISCRSSQSLLHSNGYNYLDWYLQKPGQSPQLLIYAASSLQSGVPDRFSGSGSGTDFTLKISRVEAEDVGVYYCMQGAHWPLTFGQGTKVEIK
					3.55 nM	6.17 nM	5.17 nM	4.26 nM							15B11/15B11 (antibody, V domains shown) VH: QVQLVQSGAEVKKPGASVKVSCKASGYTFTGYYIHWVRQAPGQGLEWMGWMNPHSGHTGYAQNLQGRVTMTRDTSTSTVYMELSSLRSEDTAVYYCARVKVTTGFDYWGQGTLVTVSS VL: not shown
					10.6 nM	12.4 nM	7.91 nM	13.7 nM			no binding (tested: 20 nM)	no binding (tested: 20 nM)			9E1/9E1 (antibody, V domains shown) VH: QVQLVQSGAEVKKPGASVKVSCKASGYTFTGYYLHWVRQAPGQGLEWMGWINPNSGGTNSAQRFQGRVTMTRDTSTSTVYMELSSLRSEDTAVYYCARVRGYEGGMDVWGQGTTVTVSS VL: not shown
